Measurements as given in patent US9260500B2, “Peptide and use thereof” (Takeda Pharmaceutical Company Limited, priority 2009, dated 2016).
Starred links: 1 amine or outer side, 2 acyl side, 3 side chain; linkers in the order of their positions; H or OH if unused. Non-standard residues stand in square brackets, D forms with d. *: point of attachment. Ala(piperidin-4-yl) = O=C([C@H](CC1CCN([*:3])CC1)N[*:1])[*:2]; Arg(Me) = CNC(=N)NCCC[C@H](N)C(=O)O; tBuAla = CC(C)(C)C[C@H](N)C(=O)O; 4Pal = N[C@@H](Cc1ccncc1)C(=O)O; Cha = N[C@@H](CC1CCCCC1)C(=O)O; dPip = O=C(O)[C@H]1CCCCN1; Isobutyryl = CC(C)C(=O)*; Abu = CC[C@H](N)C(=O)O; Aib = CC(C)(N)C(=O)O; Bz = O=C(c1ccccc1)*

Experiments:
human Y2 receptor [1] = target: T1, human Y2 receptor (Homo sapiens, UniProt P49146); assay: Human Y2 Receptor G Protein Binding Assay (GBA), [35S]GTPγS; type: biochemical; conditions: EC50 of test compound/EC50 of PYY(3-36) (PYY3-36 taken as 1), hY2R/CHO membrane fraction
T1 construct: expressed in transfected cells; membrane fraction
T1 sequence (P49146 1-381): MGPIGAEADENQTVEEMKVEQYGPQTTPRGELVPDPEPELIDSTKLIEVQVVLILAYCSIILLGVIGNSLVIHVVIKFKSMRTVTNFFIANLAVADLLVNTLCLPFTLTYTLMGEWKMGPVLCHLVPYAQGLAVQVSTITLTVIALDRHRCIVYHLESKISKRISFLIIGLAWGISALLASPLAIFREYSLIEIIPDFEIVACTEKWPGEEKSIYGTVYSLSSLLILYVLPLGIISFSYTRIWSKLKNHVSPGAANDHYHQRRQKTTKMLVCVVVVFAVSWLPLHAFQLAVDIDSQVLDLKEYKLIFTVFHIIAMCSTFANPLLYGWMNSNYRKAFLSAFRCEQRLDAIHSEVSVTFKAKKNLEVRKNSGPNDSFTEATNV
Description: (3) Test Method: Human Y2 Receptor G Protein Binding Assay (GBA)
The agonist activity of the compound of the present invention against the human Y2 receptor was measured by the method described below.
2 μL of the test compound, serially diluted with DMSO from 100 μM to 1 nM, was dispensed to a 96-well plate, and 100 μL of the membrane fraction, previously diluted with an assay buffer (50 mM Tris, 5 mM MgCl2, 150 mM NaCl, […], 0.03% NaN3, 0.1% BSA, pH 7.4) to 1 μg protein/mL, was dispensed thereto, subsequently, 100 μL of a [^35S]GTPγS (NEG030H, PerkinElmer, previously diluted with the assay buffer to 1 nM) was added, and they were mixed by pipetting. After incubation at room temperature for 120 minutes, the mixture was filtered through the cell harvester FilterMate (PerkinElmer) using the UniFilter-96 GF/C (PerkinElmer), and the filter was washed 3 times with a filtering buffer (50 mM Tris, 5 mM MgCl2, 150 mM NaCl, 0.03% NaN3, 0.05% CHAPS, pH 7.4). Thereafter, UniFilter-96 GF/C was dried in a mechanical drier for 1 hour, 15 μl of the liquid scintillator MicroScint O (PerkinElmer) was added to each well, and a measurement was taken using TopCount (PerkinElmer). The data obtained were analyzed using Prism to calculate the EC50 value. The agonist activity of the test compound was expressed as a ratio to the EC50 value of PYY3-36 taken as 1 (EC50 Ratio: EC50 of test compound/EC50 of PYY(3-36)). The results are shown in the GBA column in Table 5 (Table 5-1-Table 5-10).

human Y2 receptor [2] = target: T1, human Y2 receptor; assay: Receptor Binding Assay (RBA) for Human Y2, [125I]-PYY displacement on hY2R/CHO membrane fraction; conditions: IC50 of test compound/IC50 of PYY(3-36) (PYY(3-36) taken as 1)
Description: (1) Construction of Expression Plasmid for the Human Y2 Receptor (Y2R) Gene
PCR was performed by a reaction using Pfu DNA polymerase ([…]), with a human brain cDNA (PT3158-1, Clontech) as the template, wherein synthetic DNAs with the following sequences were used as a combination of 5′ and 3′ primers, whereby the human Y2R gene was cloned. Primer 1 was prepared on the basis of base sequence information on the human Y2R gene (Refseq ID No. NM_000910) with the addition of Kozak's consensus sequence. Primer 2 was prepared on the basis of base sequence information on the human Y2R gene.
The PCR product obtained was cloned into pCR4-Blunt-TOPO (Invitrogen), and the plasmid was extracted according to a conventional method (QIAwell 8 Plus, QIAGEN). After confirming the base sequence, the human Y2R gene was re-cloned by a PCR reaction with the plasmid DNA as the template, using Primer 1 as the 5′ primer and Primer 2 as the 3′ primer. The PCR was performed using the Pyrobest DNA polymerase (TaKaRa). The PCR product obtained was re-cloned into pCR-Blunt II-TOPO (Invitrogen), and the plasmid was extracted according to a conventional method (QIAGEN). An Xho I restriction enzyme digestion site and an Spe I restriction enzyme digestion site are present in the cloning site of the pCR-Blunt II-TOPO; a plasmid clone was selected wherein the human Y2R gene was inserted in the orientation such that the Xho I restriction enzyme digestion site was positioned upstream of Primer 1, and the Spe I restriction enzyme digestion site was positioned downstream of Primer 2. After confirming the base sequence, the plasmid clone was digested with the restriction enzymes Xho I and Spe I to yield a DNA fragment. The DNA fragment was inserted into the animal cell expression vector pAKKO-111H (the same plasmid as pAKKO-1.111H described in Biochem. Biophys. Acta, Hinuma, S. et al., 1219, 251-259 (1994)), which was enzymatically digested with Sal I and Spe I, to yield the expression plasmid pAK-hY2R (pAKKO-111H/Y2R).
(2) Test Method: Receptor Binding Assay (RBA) for Human Y2
A human NPY2R (hY2R) stable expression cell line was acquired by transducing the animal cell expression plasmid pAK-hY2R into CHO/dhfr-cells using the CellPhect Transfection kit (Amersham Pharmacia Biotech Co.). First, 240 μl of Buffer A (attached to the CellPhect Transfection kit) was added to 9.6 μg of the plasmid DNA dissolved in 240 μl of distilled water; this mixture was stirred and allowed to stand for 10 minutes, after which 480 μL of Buffer B (attached to the CellPhect Transfection kit) was added, and the mixture was vigorously stirred to form a liposome containing the DNA. 2.5×10^5 or 4×10^5 CHO/dhfr− cells (obtained from ATCC) were seeded to 60 mm petri dishes, and cultured in Ham's F-12 medium (Sigma Co.) containing 10% fetal bovine serum (BioWest Co.) at 37° C. in 5% gaseous carbon dioxide for 1 day, after which 480 μL of the liposome was added drop by drop on to the cells in each petri dish. This was cultured at 37° C. in 5% gaseous carbon dioxide for 6 hours, after which the cells were twice washed with serum-free Ham's F-12 medium; 3 mL of 15% glycerol was added onto the cells in the petri dish and treated for 2 minutes. This was again washed 3 times with serum-free Ham's F-12 medium, after which the cells were cultured in Ham's F-12 medium containing 10% fetal bovine serum at 37° C. in 5% gaseous carbon dioxide. The cells were dispersed by trypsinization and recovered from the petri dishes, and seeded to a 6-well plate at 2.5×10^4 or 4×10^4 cells per well; cultivation was begun in Dulbecco's modified Eagle medium <DMEM> medium (Sigma Co.) containing dialyzed 10% fetal bovine serum (Invitrogen Co.) at 37° C. in 5% gaseous carbon dioxide. Since plasmid-introduced transformant CHO cells grow in the medium, whereas cells without plasmid introduction die gradually, about 20 colonies of transformed CHO cell that had grown 9-13 days after the start of the cultivation were isolated. […]

Row | GBA EC50 Ratio (human Y2 receptor [1]) | RBA IC50 Ratio (human Y2 receptor [2]) | Substance
1 | 1.0 | 1.2 | Ac-[Leu22, D-Pro24, Pya(4)26, Cha27,36, Aib28,31, Lys30]-PYY(22-36) (Ac-LS[dP]R[4Pal][Cha][Aib]NK[Aib]TRQR[Cha]-NH2; SMILES CC(=O)N[C@@H](CC(C)C)C(=O)N[C@@H](CO)C(=O)N1CCC[C@@H]1C(=O)N[C@@H](CCCNC(=N)N)C(=O)N[C@@H](Cc1ccncc1)C(=O)N[C@@H](CC1CCCCC1)C(=O)NC(C)(C)C(=O)N[C@@H](CC(N)=O)C(=O)N[C@@H](CCCCN)C(=O)NC(C)(C)C(=O)N[C@H](C(=O)N[C@@H](CCCNC(=N)N)C(=O)N[C@@H](CCC(N)=O)C(=O)N[C@@H](CCCNC(=N)N)C(=O)N[C@@H](CC1CCCCC1)C(N)=O)[C@@H](C)O) [compound No. 274]
2 | 1.8 | 1.1 | Ac-[D-Pro24, Pya(4)26, Cha27,36, Aib28,31, Arg30]-PYY(23-36) (Ac-S[dP]R[4Pal][Cha][Aib]NR[Aib]TRQR[Cha]-NH2; SMILES CC(=O)N[C@@H](CO)C(=O)N1CCC[C@@H]1C(=O)N[C@@H](CCCNC(=N)N)C(=O)N[C@@H](Cc1ccncc1)C(=O)N[C@@H](CC1CCCCC1)C(=O)NC(C)(C)C(=O)N[C@@H](CC(N)=O)C(=O)N[C@@H](CCCNC(=N)N)C(=O)NC(C)(C)C(=O)N[C@H](C(=O)N[C@@H](CCCNC(=N)N)C(=O)N[C@@H](CCC(N)=O)C(=O)N[C@@H](CCCNC(=N)N)C(=O)N[C@@H](CC1CCCCC1)C(N)=O)[C@@H](C)O) [compound No. 263]
3 | 4.3 | 5.6 | Benzoyl-[His27, Cha28,36, Aib31]-PYY(25-36) (Bz-RHH[Cha]NL[Aib]TRQR[Cha]-NH2; SMILES CC(C)C[C@H](NC(=O)[C@H](CC(N)=O)NC(=O)[C@H](CC1CCCCC1)NC(=O)[C@H](Cc1c[nH]cn1)NC(=O)[C@H](Cc1c[nH]cn1)NC(=O)[C@H](CCCNC(=N)N)NC(=O)c1ccccc1)C(=O)NC(C)(C)C(=O)N[C@H](C(=O)N[C@@H](CCCNC(=N)N)C(=O)N[C@@H](CCC(N)=O)C(=O)N[C@@H](CCCNC(=N)N)C(=O)N[C@@H](CC1CCCCC1)C(N)=O)[C@@H](C)O) [compound No. 104]
4 | 11 | 17 | Ac-[D-Pro24, Pya(4)26, Ala(4Pip)27, Aib28,31, Lys30, Cha36]-PYY(23-36) [compound No. 308] (Ac-S[dP]R[4Pal][Ala(piperidin-4-yl)][Aib]NK[Aib]TRQR[Cha]-NH2; SMILES CC(=O)N[C@@H](CO)C(=O)N1CCC[C@@H]1C(=O)N[C@@H](CCCNC(=N)N)C(=O)N[C@@H](Cc1ccncc1)C(=O)N[C@@H](CC1CCNCC1)C(=O)NC(C)(C)C(=O)N[C@@H](CC(N)=O)C(=O)N[C@@H](CCCCN)C(=O)NC(C)(C)C(=O)N[C@H](C(=O)N[C@@H](CCCNC(=N)N)C(=O)N[C@@H](CCC(N)=O)C(=O)N[C@@H](CCCNC(=N)N)C(=O)N[C@@H](CC1CCCCC1)C(N)=O)[C@@H](C)O)
5 | 10 | 17 | Ac-[Glu23, D-Pic(2)24, Cha27,28,36, Aib31]-PYY(23-36) (Ac-E[dPip]RH[Cha][Cha]NL[Aib]TRQR[Cha]-NH2; SMILES CC(=O)N[C@@H](CCC(=O)O)C(=O)N1CCCC[C@@H]1C(=O)N[C@@H](CCCNC(=N)N)C(=O)N[C@@H](Cc1c[nH]cn1)C(=O)N[C@@H](CC1CCCCC1)C(=O)N[C@@H](CC1CCCCC1)C(=O)N[C@@H](CC(N)=O)C(=O)N[C@@H](CC(C)C)C(=O)NC(C)(C)C(=O)N[C@H](C(=O)N[C@@H](CCCNC(=N)N)C(=O)N[C@@H](CCC(N)=O)C(=O)N[C@@H](CCCNC(=N)N)C(=O)N[C@@H](CC1CCCCC1)C(N)=O)[C@@H](C)O) [compound No. 120]

The remaining lines, values behind:

Row | Substance | GBA EC50 Ratio (human Y2 receptor [1]) | RBA IC50 Ratio (human Y2 receptor [2])
6 | Isobutanoyl-[Abu26, Cha27,28,36, Leu(Me)30, Aib31]-PYY(25-36) (Isobutyryl-R[Abu][Cha][Cha]N[tBuAla][Aib]TRQR[Cha]-NH2; SMILES CC[C@H](NC(=O)[C@H](CCCNC(=N)N)NC(=O)C(C)C)C(=O)N[C@@H](CC1CCCCC1)C(=O)N[C@@H](CC1CCCCC1)C(=O)N[C@@H](CC(N)=O)C(=O)N[C@@H](CC(C)(C)C)C(=O)NC(C)(C)C(=O)N[C@H](C(=O)N[C@@H](CCCNC(=N)N)C(=O)N[C@@H](CCC(N)=O)C(=O)N[C@@H](CCCNC(=N)N)C(=O)N[C@@H](CC1CCCCC1)C(N)=O)[C@@H](C)O) [compound No. 81] | 26 | 51
7 | Ac-[D-Hyp24, Pya(4)26, Cha27,36, Aib28,31, Lys30]-PYY(23-36) [compound No. 207] | 0.86 | 1.1
8 | Isobutanoyl-[Abu26, Cha27,28,36, Abu30, Aib31]-PYY(25-36) (Isobutyryl-R[Abu][Cha][Cha]N[Abu][Aib]TRQR[Cha]-NH2; SMILES CC[C@H](NC(=O)[C@H](CCCNC(=N)N)NC(=O)C(C)C)C(=O)N[C@@H](CC1CCCCC1)C(=O)N[C@@H](CC1CCCCC1)C(=O)N[C@@H](CC(N)=O)C(=O)N[C@@H](CC)C(=O)NC(C)(C)C(=O)N[C@H](C(=O)N[C@@H](CCCNC(=N)N)C(=O)N[C@@H](CCC(N)=O)C(=O)N[C@@H](CCCNC(=N)N)C(=O)N[C@@H](CC1CCCCC1)C(N)=O)[C@@H](C)O) [compound No. 91] | 21 | 20
9 | Benzoyl-[Cha27,36, Ile28, Arg(Me)31]-PYY(25-36) (Bz-RH[Cha]INL[Arg(Me)]TRQR[Cha]-NH2) [compound No. 70] | 15 | 18
